Assay results from patent US20220098328A1, “ANTIBODIES TO M(H)DM2/4 AND THEIR USE IN DIAGNOSING AND TREATING CANCER” (NomoCan Pharmaceuticals LLC, priority 2017, published 2022).
“Also recorded” adds a separate entry of the source.

B1: NMC-103: mouse monoclonal antibody of the IgG1 isotype that binds to NMC-P1 (SEQ ID NO:1); VH SEQ ID NO:36, VL SEQ ID NO:37 (antibody, V domains shown)
VH: EVQLQESGGGLVQPGGSLRLSCTTSGFTFTHYYMSWVRQPPGKALEWLGFIRNKAKGYTAEYSASVKGRFTISRDNSQSILYLQMNTLRPEDSATYYCARDIGDNWGQGTLVTVSS
VL: DIVMTQAAFSNPVTLGTSASISCRSSKNLLHSNGITYLYWYLQRPGQSPQLLISRVSNLASGVPNRFSGSESGTDFTLRISRVEAEDVGVYFCAQLLELPYTFGGGTKLEIK
modifications: mAb NMC-103 Heavy Chain Variable Region; mAb NMC-103 Light Chain Variable Region
B2: NMC-204: mouse monoclonal antibody of the IgG3 isotype that binds to NMC-P2 (SEQ ID NO:2); VH SEQ ID NO:38, VL SEQ ID NO:39 (antibody, V domains shown)
VH: EVQLQESGSVLVRPGASVKLSCKASGDTLSGSWMHWAMQRPGQGLEWIGEIHLNRGTTNYNEKFKGKATVTVDTSSSTAYVDLSSLTSEDSAVYYCARSPGFAYWGQGTLVTVSA
VL: GIVMTQAAPSVPVTPGESVSISCRSSKSLLHSNGNSYLYWFLQRPGQSPQLLIYRMSNLASGVPDRFSGSGSGTAFTLRITRVEAEDVGVYYCMQHLEYPFTFGSGTKLEIK
modifications: mAb NMC-204 Heavy Chain Variable Region; mAb NMC-204 Light Chain Variable Region

How the values were obtained:
[1] = target: NMC-P1 peptide (SEQ ID NO:1), amino acids 1-15 of HDM2 (Homo sapiens, UniProt Q00987); experiment: Peptide-ELISA; assay type: binding; details: for binding to NMC-P1 peptide: peptide-ELISA, 5 μg/ml peptide on plate, OD 450 nm
Method: (§1) Peptide-ELISA Methodology: 5 μg/ml of NMC-P1, NMC-P2 or NMC-P3 peptide antigen was dried onto a 96-well ELISA plate overnight. Plates were then blocked with 5% BSA in 1× phosphate-buffered saline (PBS) (100 μl/well) for 2 hours at room temperature. Microplate wells were then washed 5 times with 300 μl of ice cold 1×PBS. Appropriate dilutions of monoclonal antibodies NMC-103, NMC-204 or NMC-303 in 1% bovine serum albumin (BSA) in PBS solution were then incubated with their corresponding peptides (NMC-P1, NMC-P2 or NMC-P3, respectively) at room temperature. After 2 hours, wells were washed 5 times with 300 μl ice-cold PBS/well and 100 μl secondary antibody (HRP-labeled Goat anti-Mouse F(ab′)2 H&L cross-adsorbed secondary antibody (HRP-GaM F(ab′)2), ThermoFisher, Cat. No. A24524) diluted 1:2500 to 1:5000 in PBS-1% BSA solution were added and the incubation continued at room temperature. After 1 hour, the wells were washed again 5 times with 200 μl of ice-cold PBS and 50 μL of the TMB Substrate Solution (1-Step™ Ultra TMB-ELISA, ThermoFisher, Cat. No. 34028) were added to each well and color was allowed to develop for 30 minutes at room temperature. The reaction was stopped by addition of 50 μL of stop solution (ThermoFisher, Cat. No. SS04) to each well and absorbance of each well was read immediately for optical density (OD) at 450 nm.
Competition assays: As for peptide antigen binding competition experiments, […] of mAb NMC-103 was pre-incubated with 10 μl/ml of NMC-P1, NMC-P2 or NMC-P3 for 1 hour at room temperature. MAb NMC-103 was then incubated with ELISA plates coated with NMC-P1 as described above.

[2] = target: NMC-P2 peptide (SEQ ID NO:2), amino acids 15-25 of HDM2 (Homo sapiens, UniProt Q00987); experiment: Peptide-ELISA; assay type: binding; details: 5 μg/ml peptide on plate, OD 450 nm
Method: as §1

[3] = test system: human triple negative breast cancer HCC1806 cells; experiment: Cell-ELISA on intact cells; assay type: cell-based; details: mAb 1 μg/mL, fixed, non-permeabilized cells
Method: (§2) Cell-ELISA Methodology: 8,000-10,000 cells/well of a 96-well microplate were grown overnight. The next day, unbound cells were washed off with sterile 1×PBS. The cells in each well were fixed with freshly prepared 4% buffered paraformaldehyde (pH 7.2) for 1 hour followed by 3 washes with 1×PBS. The wells were then blocked with 5% BSA in PBS (100 μl/well) for 2 hours at room temperature. Microplate wells were then washed 5 times with 300 μl of ice cold 1×PBS. MAbs NMC-103, NMC-204 or NMC-303 at 1 μg/mL in 1% BSA/PBS were then incubated with various cancer or normal untransformed cells for 2 hours at room temperature. Wells were then washed with 300 μl of ice-cold 1×PBS for 5 times and corresponding secondary antibody HRP-GaM F(ab′)2 diluted 1:2500 or 1:5000 in PBS with 1% BSA were added at 100 μl/well for 1 hour at room temperature followed by washing 5 times with 300 μl of ice-cold 1×PBS. TMB Substrate Solution (1-Step™ Ultra TMB-ELISA, ThermoFisher, Cat. No. 34028) was then added at 50 μL to each microplate well and incubated at room temperature for 30 minutes. The reaction was stopped by addition of 50 μL of stop solution (ThermoFisher, Cat. No. SS04) to each well and absorbance of each well was measured at OD450 nm. The absorbance value of each experimental well was corrected for the absorbance value obtained from wells treated with isotype-identical mAbs included in each experiment. The results are thus expressed as “relative binding”.

[4] = test system: human uveal melanoma 92.1 cells; experiment: Cell-ELISA on intact cells; assay type: cell-based; details: mAb 1 μg/mL, fixed, non-permeabilized cells
Method: as §2

[5] = test system: normal human peripheral blood mononuclear cells (PBMCs); experiment: Cell-ELISA on intact cells; assay type: cell-based; details: freshly isolated normal human PBMCs
Method: as §2

[6] = test system: human pancreatic cancer MIAPaCa-2 cells; experiment: In vitro growth inhibition (cell count); assay type: cell-based; details: overnight, MIAPaCa-2 8,000 cells/well
Method: Methodology used: Human pancreatic cancer MIAPaCa-2 cells (8,000 cells/well) were pre-incubated with mAb NMC-103, NMC-204 and anti-Cytochrome-C antibody (Santa Cruz, Cat No. sc-13156) at 1, 5 and 10 μg/mL, respectively. Cells in the presence of one of the antibodies at various concentrations were then plated in triplicate in 96-well cell culture plates overnight. The next day, each plate well was analyzed morphologically and a picture was taken from each well using EVOS FL microscope. Cell count was also performed and the number of living cells was graphed as % of control.

[7] = test system: human pancreatic cancer MIAPaCa-2 cells; experiment: Complement-dependent cytotoxicity with normal human serum (PI staining); assay type: cell-based; details: antibody 30 μg/ml, NHS 1:10, 2 hours
Method: Methodology used: Cells seeded in 24-well dishes were grown overnight at 37° C. in a humidified atmosphere supplied with 5% CO2-95% air mixture. The following day the cells were thoroughly washed with ice-cold PBS and incubated with HDM2-specific mAb NMC-103 diluted in culture medium containing 1% BSA to a final antibody concentration of 30 μg/ml. After 30 min, NHS was added to the cells at a final concentration of 1:10 in the culture medium with 1% BSA together with 1% propidium iodide (PI) solution. Cells were then incubated with NHS for 2 hours and images were taken using EVOS FL fluorescent microscope (Life Technologies).
Methodology used: Cells seeded in 24-well dishes were grown over night at 37° C. in a humidified atmosphere supplied with 5% CO2-95% air mixture. The following day the cells were thoroughly washed with ice-cold PBS and incubated with various HDM2-specific antibodies (i.e., OP145, N-20 and C-18 antibodies; see description of the antibodies in Table 10) or control antibodies (directed to the intra-cellular protein Cytochrome C) diluted in culture medium containing 1% BSA to a final antibody concentration of 5-10 ug/ml. After 30 min, NHS was added to the cells to make a final concentration of at 1:30 in the culture medium with 1% BSA together with 1% propidium iodide (PI) solution. […]

[8] = competition: 1 μl/ml mAb pre-incubated with 10 μl/ml peptide for 1 hour

Molecule	binding of mAb to plate-bound NMC-P1 after pre-incubation with NMC-P1 peptide [1, 8]	binding of mAb to plate-bound NMC-P1 after pre-incubation with NMC-P2 peptide [1, 8]	binding of mAb to plate-bound NMC-P1 after pre-incubation with NMC-P3 peptide [1, 8]	binding to NMC-P1 peptide [1]	binding to NMC-P2 peptide [2]	relative binding (reactivity) to intact cells, cell-ELISA [3]	relative binding (reactivity) to intact cells, cell-ELISA [4]	binding to intact normal cells, cell-ELISA [5]	growth inhibitory effect ([6]; 1 μg/mL antibody)	growth inhibitory effect ([6]; 5 μg/mL antibody)	growth inhibitory effect ([6]; 10 μg/mL antibody)	complement-mediated cytotoxicity (PI uptake) [7]
B1	abolished the binding	did not affect the binding	did not affect the binding	bound; also recorded: strong binding	did not bind	reactivity	reactivity	virtually no binding	65%	84%	91%	triggered complement-mediated cytotoxicity
B2	–	–	–	did not bind	bound; also recorded: strong binding	reactivity	reactivity	did not react; also recorded: virtually no binding	65%	73%	77%	–
